From publication PMC8881488, “Intricate coupling between the transactivation and basic-leucine zipper domains governs phosphorylation of transcription factor ATF4 by casein kinase 2” (The Journal of Biological Chemistry, 2022) come the findings set out here.

For this assay, the target named is T1, ATF4-275 (isolated transactivation domain of activating transcription factor 4) (human, UniProt P18848 1-275).
T1 construct: 15N-labelled (expressed in minimal medium) for the NMR titration; also called isolated TAD; ATF4 TAD; not shown: GST, N-terminal, cleaved
T1 sequence (looked up): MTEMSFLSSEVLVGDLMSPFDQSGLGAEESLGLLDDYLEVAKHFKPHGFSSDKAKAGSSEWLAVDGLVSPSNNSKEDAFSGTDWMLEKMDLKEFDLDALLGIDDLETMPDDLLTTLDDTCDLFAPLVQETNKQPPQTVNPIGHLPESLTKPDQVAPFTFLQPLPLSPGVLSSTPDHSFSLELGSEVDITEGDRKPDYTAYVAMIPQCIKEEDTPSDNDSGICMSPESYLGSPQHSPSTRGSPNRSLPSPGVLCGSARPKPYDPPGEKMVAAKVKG
In words: NMR titration; 15N-labeled ATF4-275 titrated with increasing concentrations of unlabeled ATF4-bZip; 2D 1H-15N TROSY-HSQC, amide crosspeak intensity ratios; NMR samples in 20 mM MES pH 6.5, 50 mM NaCl. As to conditions: both partners purified.

B1: ATF4-bZip (isolated basic-leucine zipper domain of activating transcription factor 4) (domain or fragment, human, UniProt P18848 276-351, looked up)
chain: EKLDKKLKKMEQNKTAATRYRQKKRAEQEALTGECKELEKKNEALKERADSLAKEIQYLKDLIEEVRKARGKKRVP
notes: The limits 276-351 are those printed for the bZip domain; also called bZip domain; isolated bZip domain; source: E. coli BL21(DE3), purified (Glutathione-Sepharose, TEV cleavage, Superdex 200 gel filtration); not shown: GST, N-terminal, cleaved
Consider B1, for which the binding result is recorded as “binds”.
